Assay results: doi:10.1101/2020.12.20.423708 (bioRxiv, 2020)

B1: CM32 recombinant plasma mAb (subject P3, Lin.4) (antibody, V domains shown)
VH: QVQLVQSGPEVKKPGASVKVSCQTSGYSFSDHYLHWVRQTPGQGFEWMGWIKPKSGATNSADNFQDRVTMTADASVNTAYMELSSLRPDDTAVYYCARGHRIPSAISDKYDFWGQGTLVTVSS
VL: QSVLTQPASVSASPGQSITISCTGTSSDVGGYDYVSWYQHHPDNAPKLLIFEVSNRPSGVSNRFSGSKSGNAASLTISGLLAEDEADYFCTSYSSGRTPYVFGTGTKVTVL
B2: CM30 recombinant plasma mAb (subject P3, Lin.2) (antibody, V domains shown)
VH: QVQLVESGGGLVKPGGSLRLSCAASGFTFSDYYMSWIRQAPGKGLEWVSSIDGSTSYTKYADSVKGRFTISRDNAKNSLYLQMNSLRAEDTAVYYCARVGPAVAGSPFDSWGQGTLVTVSS
VL: EIVLTQSPATLSLSPGERATLSCRASQSVSTYLAWYQQKPGQAPRLLIFDASNRATGIPARFSGSGSGTDFTLTISSLEPEDFAVYYCQQRSNWLFSFGPGTKVDIK
B3: CM29 recombinant plasma mAb (subject P3, Lin.1) (antibody, V domains shown)
VH: QVQLVESGGGVVQPGRSLRLSCAASGFTLSKYGMHWVRQAPDKGLEWVALMSYDGSIKYYGDSVKGRFTVSRDSSKNTLYLQMNNLRDDDTAVYFCARGAMAGNSSFDHWGQGTLVTVSS
VL: not shown
B4: CM31 recombinant plasma mAb (subject P3, Lin.3) (antibody, V domains shown)
VH: QVTLKESGPTLVKPTQTLTLTCTVSGFSLSTNGVGVAWVRQPPGKALEWLGLIYWDDAQRYGPSLKSRLTITKDTSKNQVVLTLTNMDPVDTGTYYCSHVWVNSTHRQIDYWGQGTLVTVSS
VL: QPVLTQPPSSSASPGESARLTCTLPSDFNVGSYNIYWYQKRPGSPPRYLLYYYSDSDKGQGSGVPSRFSGSKDASANTGILLISGLQSEDEADYYCMIWPINGVVFGGGTKLTVL

Target: SARS-CoV-2 spike ectodomain, HexaPro variant (SARS-CoV-2, Wuhan-Hu-1 (MN908947), stabilised)
Experiment: BLI

Binder | Kd [nM]
B1 | 6
B2 | 0.8
B3 | 6.6
B4 | 37.7
